Data published in the supplement of paper PMC10567573.

B1: PBXIP1 (parent)
chain: FGEDGIFRHDRLRFRDFVDALEDS

Variants of: B1
Experiment: protein stability index of a GFP-peptide fusion (GPS, HEK-293T) (PSI 1-6); higher = more stable
Settings: c terminus: a fixed tail appended
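Also: lentivirally expressed fusions sorted by FACS into six bins by GFP to DsRed ratio, PSI derived from sequencing read proportions per bin multiplied by bin number.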

| Variant | protein stability index |
| --- | --- |
| FGEDGIFRHDRVRFRDFVDALEDS | 2.65 |
| FGEDGIFRHDRPRFRDFVDALEDS | 2.43 |
| FGEDGIFRHDRKRFRDFVDALEDS | 2.46 |
| FGEDGIFRHDRERFRDFVDALEDS | 3.51 |
| FGEDGIFRHDRSRFRDFVDALEDS | 2.55 |
| FGEDGIFRHDRTRFRDFVDALEDS | 2.44 |
| FGEDGIFRHDRIRFRDFVDALEDS | 3.05 |
| FGEDGIFRHDRHRFRDFVDALEDS | 2.73 |
| FGEDGIFRHDRARFRDFVDALEDS | 2.88 |
| FGEDGIFRHDRCRFRDFVDALEDS | 2.74 |
| FGEDGIFRHDRFRFRDFVDALEDS | 2.56 |
| FGEDGIFRHDRMRFRDFVDALEDS | 2.51 |
| FGEDGIFRHDRQRFRDFVDALEDS | 3.17 |
| FGEDGIFRHDRYRFRDFVDALEDS | 2.71 |
| FGEDGIFRHDRDRFRDFVDALEDS | 3.38 |
| FGEDGIFRHDRWRFRDFVDALEDS | 2.7 |
| FGEDGIFRHDRNRFRDFVDALEDS | 3.14 |
| FGEDGIFRHDRGRFRDFVDALEDS | 3.31 |
| FGEDGIFRHDRRRFRDFVDALEDS | 2.58 |
| FGEDGIFRHDRLRFRDEVDALEDS | 3.98 |
| FGEDGIFRHDRLRFRDTVDALEDS | 3.61 |
| FGEDGIFRHDRLRFRDRVDALEDS | 3.69 |
| FGEDGIFRHDRLRFRDAVDALEDS | 3.46 |
| FGEDGIFRHDRLRFRDHVDALEDS | 3.25 |

| Variant | protein stability index |
| --- | --- |
| FGEDGIFRHDRLRFRDNVDALEDS | 3.55 |
| FGEDGIFRHDRLRFRDPVDALEDS | 3.44 |
| FGEDGIFRHDRLRFRDSVDALEDS | 3.69 |
| FGEDGIFRHDRLRFRDMVDALEDS | 3.38 |
| FGEDGIFRHDRLRFRDLVDALEDS | 2.77 |
| FGEDGIFRHDRLRFRDWVDALEDS | 2.79 |
| FGEDGIFRHDRLRFRDIVDALEDS | 3.19 |
| FGEDGIFRHDRLRFRDQVDALEDS | 3.58 |
| FGEDGIFRHDRLRFRDCVDALEDS | 3.12 |
| FGEDGIFRHDRLRFRDDVDALEDS | 3.68 |
| FGEDGIFRHDRLRFRDVVDALEDS | 3.38 |
| FGEDGIFRHDRLRFRDKVDALEDS | 3.09 |
| FGEDGIFRHDRLRFRDGVDALEDS | 3.57 |
| FGEDGIFRHDRLRFRDYVDALEDS | 2.97 |
| FGEDGIFRHDRLRWRDFVDALEDS | 2.2 |
| FGEDGIFRHDRLRTRDFVDALEDS | 3.62 |
| FGEDGIFRHDRLRGRDFVDALEDS | 3.67 |
| FGEDGIFRHDRLRLRDFVDALEDS | 2.96 |
| FGEDGIFRHDRLRHRDFVDALEDS | 2.87 |
| FGEDGIFRHDRLRDRDFVDALEDS | 3.84 |
| FGEDGIFRHDRLRMRDFVDALEDS | 3.23 |
| FGEDGIFRHDRLRQRDFVDALEDS | 3.46 |
| FGEDGIFRHDRLRSRDFVDALEDS | 3.81 |
| FGEDGIFRHDRLRRRDFVDALEDS | 3.37 |

| Variant | protein stability index |
| --- | --- |
| FGEDGIFRHDRLRIRDFVDALEDS | 2.86 |
| FGEDGIFRHDRLRNRDFVDALEDS | 3.71 |
| FGEDGIFRHDRLRERDFVDALEDS | 3.86 |
| FGEDGIFRHDRLRKRDFVDALEDS | 3.38 |
| FGEDGIFRHDRLRPRDFVDALEDS | 3.01 |
| FGEDGIFRHDRLRVRDFVDALEDS | 3.05 |
| FGEDGIFRHDRLRYRDFVDALEDS | 2.57 |
| FGEDGIFRHDRLRCRDFVDALEDS | 1.99 |
| FGEDGIFRHDRLRARDFVDALEDS | 3.43 |
| FGEDGIFRHDRLRFSDFVDALEDS | 2.54 |
| FGEDGIFRHDRLRFFDFVDALEDS | 2.68 |
| FGEDGIFRHDRLRFTDFVDALEDS | 2.44 |
| FGEDGIFRHDRLRFEDFVDALEDS | 3.61 |
| FGEDGIFRHDRLRFQDFVDALEDS | 3.06 |
| FGEDGIFRHDRLRFCDFVDALEDS | 2.79 |
| FGEDGIFRHDRLRFIDFVDALEDS | 2.23 |
| FGEDGIFRHDRLRFDDFVDALEDS | 2.87 |
| FGEDGIFRHDRLRFPDFVDALEDS | 3.36 |
| FGEDGIFRHDRLRFHDFVDALEDS | 2.48 |
| FGEDGIFRHDRLRFADFVDALEDS | 2.38 |
| FGEDGIFRHDRLRFMDFVDALEDS | 2.54 |
| FGEDGIFRHDRLRFLDFVDALEDS | 2.48 |
| FGEDGIFRHDRLRFGDFVDALEDS | 3.41 |
| FGEDGIFRHDRLRFYDFVDALEDS | 2.22 |

| Variant | protein stability index |
| --- | --- |
| FGEDGIFRHDRLRFWDFVDALEDS | 1.97 |
| FGEDGIFRHDRLRFVDFVDALEDS | 2.02 |
| FGEDGIFRHDRLRFKDFVDALEDS | 2.9 |
| FGEDGIFRHDRLRFNDFVDALEDS | 3.38 |
| FGEDGIFRHDRLRFRDFVDCLEDS | 3.05 |
| FGEDGIFRHDRLRFRDFVDDLEDS | 3.23 |
| FGEDGIFRHDRLRFRDFKDALEDS | 3.13 |
| FGEDGIFRHDRLRFRDFCDALEDS | 3.3 |
| FGEDGIFRHDRLRFRDFNDALEDS | 3.14 |
| FGEDGIFRHDRLRFRDFEDALEDS | 3.5 |
| FGEDGIFRHDRLRFRDFIDALEDS | 2.17 |
| FGEDGIFRHDRLRFRDFLDALEDS | 3.32 |
| FGEDGIFRHDRLRFRDFHDALEDS | 2.53 |
| FGEDGIFRHDRLRFRDFTDALEDS | 3.27 |
| FGEDGIFRHDRLRFRDFDDALEDS | 3.1 |
| FGEDGIFRHDRLRFRDFMDALEDS | 2.87 |
| FGEDGIFRHDRLRFRDFYDALEDS | 2.4 |
| FGEDGIFRHDRLRFRDFPDALEDS | 2.94 |
| FGEDGIFRHDRLRFRDFFDALEDS | 2.45 |
| FGEDGIFRHDRLRFRDFGDALEDS | 3.16 |
| FGEDGIFRHDRLRFRDFWDALEDS | 2.07 |
| FGEDGIFRHDRLRFRDFRDALEDS | 3.05 |
